Source: article PMC6430473

Target: T1, Clp (Xanthomonas campestris pv. campestris 8004) (UniProt Q4UZF6)
T1 sequence: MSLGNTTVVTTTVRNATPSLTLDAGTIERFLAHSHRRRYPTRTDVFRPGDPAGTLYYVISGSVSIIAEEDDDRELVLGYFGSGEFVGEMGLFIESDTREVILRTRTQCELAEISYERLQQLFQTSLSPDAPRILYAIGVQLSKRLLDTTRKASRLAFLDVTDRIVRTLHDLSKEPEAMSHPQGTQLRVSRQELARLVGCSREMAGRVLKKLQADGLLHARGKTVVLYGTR
Assay: EMSA

Sequence	binding
AGCTGAAGGCCGGCCCGGCGGCCAGTGCGAGGGCGGTGGCCAAAGCGAGCGTGCTTGCGGTCCTGAATATGGACATGGTGATCTCCCTAGAGAACCGGGCTCGACACCCGAGCGCGGTAAGGCGGGCATCTTGGTCTGTGCGCGCGTCGCGTGGTG (double strand) [P-36/+120 (text: P-36/+100)]	no binding
CATGGTGATCTCCCTAGAGAACCGGGCTCGACACCCGAGCGCGGTAAGGCGGGCATCTTGGTCTGTGCGCGCGTCGCGTGGTGTGATCGTCCCCACAGAAAAC (double strand) [P-56/+47]	binds
